The results in this text go back to patent publication US20110064819A1, “ENCAPSULATION OF BIOLOGICALLY ACTIVE AGENTS” (priority 2008, published 2011).

This data set can be described thus: HIP extraction of dalargin into the organic phase (LC-MS and Edman sequencing). Type of data set: physicochemical. To be noted: docusate sodium in dichloromethane, peptide solution pH 3.05. As to the method:
A solution of the hexapeptide dalargin was prepared by dissolving 30-60 mg of the peptide into 3 ml of CaCl2 (18.3 mM) and lowering the pH to 3.05 by addition of concentrated HCl (2M). The resulting solution (500 μl, 10-20 mg/ml, and total amount of peptide 5-10 mg) was added to a solution of the HIP agent docusate sodium in dichloromethane (1 ml, 3.058-6.116% w/v) in a 2 ml eppendorf tube. The volume of HIP solution used was twice that of the peptide solution (1 ml HIP solution for 500 μl peptide solution). The molar ratio of HIP:peptide was 10:1 with 5 mg peptide and 5:1 with 10 mg peptide. The organic and aqueous phases were mixed by vortexing at maximum speed for 1 minute. The resulting suspension was then centrifuged to separate the two phases at 20,817 rcf for 50 minutes. The organic layer (containing solubilised peptide) was collected and used to prepare nanoparticles. In order to confirm that the process had been successful at solubilising the peptide into the organic phase, the amount of peptide remaining in the aqueous phase was determined.

For “dalargin (YAGFLR; Humanised sequence of mus musculus and homo sapiens) [hexapeptide YAGFLR]”, the “Peptide extracted into the organic phase” value is given as “at least 99%”.
